Laboratory results reported in publication PMC5726764 (Biotechnology and bioengineering, 2017).
Read-outs that look alike come from different tables or passages of the source. Values belong to the binder of their own block, whether it stands above or below them.

Key:
[1] = biological target: T1, dodecapeptide antigen DVFYPYPYASGS (as used in biolayer interferometry) (synthetic peptide); assay: BLI
T1 chain: DVFYPYPYASGS

[2] = biological target: scFv-2 (120_15439_2), de novo designed single-chain antibody; assay: BLI
[3] = biological target: scFv-2 (120_15439_2), de novo designed single-chain antibody; assay: BLI; remark: listed apart in the source
[4] = biological target: scFv-4 (140_15899_5), de novo designed single-chain antibody; assay: BLI
[5] = biological target: scFv-1 (120_6290_1), de novo designed single-chain antibody; assay: BLI
[6] = biological target: scFv-2 (120_15439_2), de novo designed single-chain antibody; assay: BLI; remark: listed apart in the source
[7] = biological target: scFv-2 (120_15439_2), de novo designed single-chain antibody; assay: BLI; remark: listed apart in the source
[8] = biological target: scFv-1 (120_6290_1), de novo designed single-chain antibody; assay: ITC
[9] = biological target: scFv-2D10, single-chain antibody of mAb 2D10; assay: ITC

Kd [1]: 3.8 nM
kon [1]: 206000 M⁻¹ s⁻¹
B1: scFv-2D10, single-chain antibody of mAb 2D10 (scFv, V domains shown)
VH: EIQLQQSGPELVKPGASVKISCKASGYSFTDYIMLWVKQSHGKSLEWIGNINPYYGSTSYNLKFKGKATLTVDKSSSTAYMQLNSLTSEDSAVYYCARKNYYGSSLDYWGQGTTLTVSS
VL: DVVMTQTPFSLPVSLGDQASISCRSSQSLVHSNGNTYLHWYLQKPGQSPKLLIYKVSNRFSGVPDRFSGSGSGTDFTLKISRVEAEDLGVYFCSQSTHVPYTFGGGTKLEIK

Kd [2]: 21.5 nM
Kd [3]: 14.4 nM
kobs [3]: 0.0041 s⁻¹
koff [3]: 0.00132 s⁻¹
Kd [4]: 23.8 nM
kobs [4]: 0.0039 s⁻¹
koff [4]: 0.00171 s⁻¹
Kd [5]: 8.9 nM
kobs [5]: 0.0033 s⁻¹
Kd [6]: 17.5 nM
Kd [7]: 2.55 nM
Binder: DVFYPYPYASGS [dodecapeptide antigen … (as used in biolayer interferometry)]

stoichiometry N [8]: 1
Kd [9]: 1 nM
stoichiometry N [9]: 1
Binder: DVFYPYPYASGS [dodecapeptide antigen …, not conjugated to BSA (as used in ITC)]
